Article PMC5750214
pKd: −log10 of the molar value.

Legend:
[1] = molecular target: mouse aortic AT1a receptor (mouse (endogenous in aorta)) (UniProt P29754); assay: radioligand binding; saturation: [125I]-Ang II on the aortic membrane fraction of WT control mice; non-specific binding subtracted
[2] = molecular target: mouse aortic AT1a receptor (mouse (endogenous in aorta)) (UniProt P29754); assay: radioligand binding; saturation: [125I]-Ang II on the aortic membrane fraction of WT mice with HHcy (fed Hcy); non-specific binding subtracted

Chain of mouse aortic AT1a receptor (mouse (endogenous in aorta)) (P29754 whole entry): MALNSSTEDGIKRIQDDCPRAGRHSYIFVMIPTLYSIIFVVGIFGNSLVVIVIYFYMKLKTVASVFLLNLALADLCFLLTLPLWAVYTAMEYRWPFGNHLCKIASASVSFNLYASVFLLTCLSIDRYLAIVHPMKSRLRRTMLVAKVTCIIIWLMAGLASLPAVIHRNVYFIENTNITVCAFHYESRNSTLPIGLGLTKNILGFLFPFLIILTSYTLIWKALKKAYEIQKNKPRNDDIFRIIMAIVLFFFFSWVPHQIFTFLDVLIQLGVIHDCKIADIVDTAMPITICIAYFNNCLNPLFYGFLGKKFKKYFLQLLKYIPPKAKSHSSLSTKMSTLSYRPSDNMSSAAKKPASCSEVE

With [125I]-Angiotensin II (peptide) the pKd [1] was 7.44 and the pKd [2] was 7.36.
